Columns and labels:
[1] = biological target: spike of variant B.1.1.345 on pseudotyped lentiviral particles; assay: cell-based or functional assay
[2] = biological target: full-length spike B.1.617.2 (SARS-CoV-2, UniProt P0DTC2 13-1273); assay: cell-based or functional assay

B1: A19-46.1 (antibody, V domains shown)
VH: QVQLVESGGGVVQPGRSLRLSCAASGFTLSSYGMHWVRQAPGKGLEWVAVISYDGSNKYYVDSVKGRFTISRDNSKNTLYLQMNSLRAEDTAVYYCARGWAYWELLPDYYYGMDVWGQGTTVTVSS
VL: QTVVTQEPSFSVSPGGTVTLTCGLSSGSVSTAYFPSWYQQTPGQAPRTLIYGTNTRSSGVPDRFSGSILGNKAALTITGAQADDESDYYCVLYMGRGIVVFGGGTKLTVL
[1]
  pseudotyped virus neutralization IC50: 0.095 µg/mL
[2]
  neutralization IC50: > 10 µg/mL

Reference: US20240117011A1 (US Dept. of Health and Human Services, published 2024)
